assay: yeast display, Sf9 membrane polyspecificity reagent, FACS + sequencing; frameworks hold sequencing errors
Method in brief: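 Galactose induction of a Saccharomyces cerevisiae BJ5465 synthetic nanobody display library ran 36–48 hours. The cells were then stained for 1 hour at 4 °C with 10% biotinylated, detergent-solubilized Sf9 membrane reagent, pulled down on streptavidin microbeads and FACS-sorted into low and high (top ~1%) gates on expression and reagent-binding fluorescence. Labels for polyreactivity follow the gate of origin.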

Which “polyreactivity (PSR sort gate)” value does the source give for “QVQLVESGGGLVQAGGSLRLSCADSGFTLNAMGWYRHAPGKERELVAAITTGGRTYYADSVKGRFTISRDNAKNTVYLQMNSLKPEDTAVYYCGAHTYYYPVGFNYWGQGTQVTVSS” here?
Its value is “low polyreactivity”.

Which “polyreactivity (PSR sort gate)” value does the source give for “QVQLVESGGGLVQAGGSLRLSCAASGRTFGLNAMGWYRQAPGKERELVAAITSGGSTYYADSVKGRFTISRDNAKNTVYLQMNSLKPEDTAVYYCAARYWRSYGISDILSDVDYWGQGTQVTVSS” here?
The value was “low polyreactivity”.

With “QVQLVESGGGLVQAGGSLRLSCAASGSTFDPNTKGWYRQAPGKERELVATITSVDSTNYADSVKGRFTISRDNANNTVYLQMNSLKTEDTAVYYCNADFVRVFFYAYDYWGQGTQVTVSS” as the sequence, how does the “polyreactivity (PSR sort gate)” value read?
Its value is “low polyreactivity”.

With “QVQLVESGAGLVQAGGSLRISCAASASIFAYYVMGRYREAPGKERELVAAITRSGSPYYADSVKGRFTISRDNAKNTVYLQMNSLKPEDTAVYYCAAPTDFLFWEFDYWGQGTQVTVSS” as the sequence, how does the “polyreactivity (PSR sort gate)” value read?
Its value is “low polyreactivity”.

With “QVQLVESGGGLVQAGGSLRLICAASGRTFGKYAMGWYRQAPGKEMQLVAAITRRGGSTFYADSVKGRFRISRDNAKNTVYLQMNSLKPEDTAVYYCAARSTVGPQYGVRFNYWGQGTQVTVSS” as the sequence, how does the “polyreactivity (PSR sort gate)” value read?
The value was “high polyreactivity”.

Which “polyreactivity (PSR sort gate)” value does the source give for “QVQLVESGGGLVQAGGSLRLSCAASGSTFWYYAMGWYRQAPGKESELVAGITQSGGSTYYADSVKGRFTISRDNAKNTVYLQMNSLKPEDTAVYYCAKDGRVSGDFDYWGQGTQVTVSS” here?
Its value is “low polyreactivity”.

Which “polyreactivity (PSR sort gate)” value does the source give for “QVHLVESGGGIVQAGGSLRLSCAASGRTFRKYAMGWYRQAPGKEMELVAAISWSGGSTYYANSVKGRFTISRDHAKNTVYLQLNSLIPEDPAVYYCAATAYYYYDYDYWGQGTQVTVSS” here?
Its value is “low polyreactivity”.

With “QVQLVESGGGLVQAGGSLRLSCAASGRTFGLNAMGWYIQAPGKERELVAAISGSGGRTYYADSVKGRFTISRDNAKNTVYLQMNSLKPEDTAVYYCARVPSGQLEYDYWGQGTQVTVSS” as the sequence, how does the “polyreactivity (PSR sort gate)” value read?
Its value is “high polyreactivity”.

With “QVQLVESGGGLVQAGGSLRLSWAASGGPFSSYDMGWYRQAPGTERELVADITNGGSTNFADSVKGRCTISRDNAKNTVYLQMNSLKPEDTAVYYCATDSYPGLNPDFDYWGHGTQVTVSS” as the sequence, how does the “polyreactivity (PSR sort gate)” value read?
The value was “low polyreactivity”.

With “QVQLVESGGGLVQAGGSLRLSCAASGLIFVYYDMGWYRQAPGKERELVAAISSSGSTYYADSVKGRFTISRDNAKNTVYLQMNSLKPEDTAVYYCAAEYLYWPFGSNYWGQGTQVTVSS” as the sequence, how does the “polyreactivity (PSR sort gate)” value read?
Its value is “high polyreactivity”.

With “QLQLVESGGCLVQAGGSLRLSCAASGIIFVVNDMGWYRQAPGNARELVADISDSGGSTNYADSVKGRFTISRDNAKNSVYLQMNSLKPEDTAVYYCAADSADPTEYDYWGQGTQVTLSS” as the sequence, how does the “polyreactivity (PSR sort gate)” value read?
Its value is “low polyreactivity”.

With “QVQLVESGGGLVQAGGSLRLSCAASGYTFPDYAMGWYRQAPGKERELVAAFRSGGGTNYADSVKGRFTISRDNAKNTVYLQMNSLKPEDTAVYYCAKEWAGGLYDYWGQGTQVTVSS” as the sequence, how does the “polyreactivity (PSR sort gate)” value read?
The value was “low polyreactivity”.

For “QVQLVESGEGLVQAGGSLSLSCAASGRIFYAYVMGWYRQAPGKERELVAAIDRRSTYYADSVKRRFTISRDNAKNTVFFQMNSLKPEDTAVYYCAARSTYSYYIRGYWGLGTQVTVSS”, which “polyreactivity (PSR sort gate)” value is on record?
Its value is “high polyreactivity”.

With “QVQLVESGGGLVQAGGSLRLSCAASGFIFFANAMGWYRQAPGKESELVADITWSGGTTYYADSVKGRFTISRDNAKNTVYLQMNSLKPEDTAVYYCAARGWASTWYYYWGQGTQVTVSS” as the sequence, how does the “polyreactivity (PSR sort gate)” value read?
The value was “high polyreactivity”.

With “QVQLVESGGGLVQAGGSLRLSCAASGSTFSYNDMGWYRQAPGKESELVADINVSVGRTYYADSVKGRFTISRDNAKNTVYLQMNSLTPEDTAVYYCNATLYTITSYVYAYDYWGQGTQVTVSS” as the sequence, how does the “polyreactivity (PSR sort gate)” value read?
Its value is “low polyreactivity”.

For “QVQLVESGGGLDQAGGSLRLSCAASGFIFIQNDMGWYRQAPGKEREFVASISKDGGRTYYADSVKGRFTISRDNAKNTVYLQMNSLKPEDTAVVYCNTYPRGNWGNFVEQDYDYWGHGTQVTVSS”, which “polyreactivity (PSR sort gate)” value is on record?
Its value is “low polyreactivity”.

With “QVQLVESGGGLVQAGGSLRLSCAASGFIFRRYAMGSYRQAPGKERELVAAISGSGGRTYYADSVKGRFTISRDNAKNTVYLQMNSLKPEDTAVYYCAADHGSLLYDYWGQGTQVTVSS” as the sequence, how does the “polyreactivity (PSR sort gate)” value read?
The value was “high polyreactivity”.

Which “polyreactivity (PSR sort gate)” value does the source give for “QVQLVESGGGLVQAGGSLRLSCAASGFIFYRYAMGWYRQAPGKERELVAAITGSGARTYYADSVKGRFTISRDNAKNTVYLQMNSLKPEDTAVYYCNARGYRGYDYWGQGTQVTVSS” here?
The value was “high polyreactivity”.

Which “polyreactivity (PSR sort gate)” value does the source give for “QDQLVESGGGLVQAGGSLRLSCAASGSIFSYYAMGWYRQAPGKERELVAAIRRGGSTYYADSVKGRFTISRDNEKNSVYLQMNSLKPEDNAVYYCAASLGWRFYYWGQGTQVTVSS” here?
The value was “high polyreactivity”.

Which “polyreactivity (PSR sort gate)” value does the source give for “QVHLVESGGGLVQAGGSLRLSCAASGSTFRYYAMGWYRQAPGKERELVATINRSGGSTYYADSVKGRFTISRDNAKNTVYLQMNSLKPEDTAVYYCAATHYYSHFLWFASNYDYWGQGTQVTVSS” here?
The value was “high polyreactivity”.

With “QVQLVESGGGLVQAGGSLRLSCAASGSIFVSYAMGWYRQAPGKERELVAAISRSGGRTYYADSVKGRFTISRDNAKNTVYLQMNSLKPEDTAVYYCAADYTKSSSPWPGYYWGQGTQVTVSS” as the sequence, how does the “polyreactivity (PSR sort gate)” value read?
The value was “high polyreactivity”.

With “QVQLVESGGGLVQAGGSLRLSCAASGFIFWTNTMGWYRQAPGKERELVAAISRSGGSTYYADSVKGRFTISRDNAKNTVYLQMNSLKPEDTAVYYCAKGYRGYSYGYWGQGTQVTVSS” as the sequence, how does the “polyreactivity (PSR sort gate)” value read?
Its value is “high polyreactivity”.

For “QVQLVESGGGLVQAGGSLRLSCADSGFTFDWYAMGWYRQAPGKERELVAAISGRGGSTYYADSVKGRFTISRDNAKNTVYLQMNSLKPEDTAVYDCNAVYGAYRYEYWGQGTQVTVSS”, which “polyreactivity (PSR sort gate)” value is on record?
The value was “high polyreactivity”.

With “QVQLVESGGGLVQAGGSLRLSCADSGSIFTYTMGWYRQAPGKERELVAVISRSGGRTYYADSVKGRFTISRDNAKNTVYLQMNSLKPEDTAVYYCATDGHNGYYGRYDYWGQGTQVTVSS” as the sequence, how does the “polyreactivity (PSR sort gate)” value read?
The value was “high polyreactivity”.

With “QVQLVESGGGLVQAGGSLRLSCAASGLIFSSYAMGWYRQAPGKERELVAAISGSGGSTYYADSEKGRFTISRDNAKNTVYLQMNSLKPEDTAVYYCAAELDDYWVVSEDSSGQGTQVTVSS” as the sequence, how does the “polyreactivity (PSR sort gate)” value read?
The value was “low polyreactivity”.

For “QVQLVESGGGLVQAGGSLRLSCAASGRIFGIYAMGWYRQAPRKERELVASITDGTITNYADSVKGRFTISRDNAKNTVYLQMNSLKPEDTAVYYCAAGTQAHAYVVRPIEMDYWGQGTQVTVSS”, which “polyreactivity (PSR sort gate)” value is on record?
The value was “low polyreactivity”.

Which “polyreactivity (PSR sort gate)” value does the source give for “QVQLVESGGGVVQAGGSLRLSCAASGFIIARNAMGWYRQAPGKERELVAAISASGGRTYYSDSEKGRFTISRDNAKNTVYLQMNSLKPEDTAVYYCAARRDGRSGSYNYWGQGTQVTVSS” here?
The value was “high polyreactivity”.

With “QVQLVESGGGLVQAGGSLRLSCAASGSTFYQYAMGWYRQAPGKERELVARITYNGGRTYYADSVKGRFTISRDNAKNTVYLQMNSLKPEDTAVYYCAARRWSTGGYGQFDYWGQGTQVTVSS” as the sequence, how does the “polyreactivity (PSR sort gate)” value read?
Its value is “low polyreactivity”.

With “QVQLVESGGGLVQAGGSLRLSCAASGFTFDSYAMGWYRQAPGKERELVAAITWDGGSTYYADSVKGRFTISRDNAKNTVYLQMNSLKPEDTAVYYCAADFGTISIDVYSWMDYWGQGTQVTVSS” as the sequence, how does the “polyreactivity (PSR sort gate)” value read?
The value was “low polyreactivity”.

With “QVQLVESGGGLVQAGGSLRLSCAASGSIFSTNAMGWYRQAPGKEWELVAVITGIGGITYYADSVKGRFTISRDNAKNTDYLQMNSLKPEDTAVYYCAADPISEFYWGVKDRYDYWGQGTQVTVSS” as the sequence, how does the “polyreactivity (PSR sort gate)” value read?
Its value is “low polyreactivity”.

With “QVQLVESGGGLVQAGGSLRLSCPASGFNFRYYAIGWYRQAPGKERQLVAAISRIGGSTNYADSVKGRFTISRDNAKNTVYLQLNSLKPEDTAVYYCAVAEGYSPAYLRDYWGQGSQVTVSS” as the sequence, how does the “polyreactivity (PSR sort gate)” value read?
Its value is “high polyreactivity”.

For “QVQLVESGGGLVQAGGSLRLSCAASGRKLSWNTMGWYRQAPGKETELVACITQNVGSTYYADSVKGRFTISRDNAKNTVYIQMKSLKPEDTAVYYCAAKRLSWHRYGYWGQGTQETVSS”, which “polyreactivity (PSR sort gate)” value is on record?
Its value is “low polyreactivity”.

For “QVQLVESGGGLVQAGGSLRLSCAASGFTFNNNAMGWYRQAPGKERELVAAISSSGGNTYYADSVKGRFTISRDNAKNTVYLQMNSLKPEDTAVYYCNAGKRQRGEYWGQGTQVTVSS”, which “polyreactivity (PSR sort gate)” value is on record?
The value was “high polyreactivity”.

For “QVQLVDSGGGLVQAGGSLRLSCAASGYTLSVNAMGWYRQAPGKERELVATIDFGGGSTYYADSVKGRFTISRDNAKNTVYLQMNSLKPEDTAVYYCNAHDFGFYRFSLPGYDYWGQGTQVTVSS”, which “polyreactivity (PSR sort gate)” value is on record?
The value was “low polyreactivity”.

For “QVQLVESGGGLVQAGGSLRLTCPASGSTFHGYDMGCYRQAPGKERELVAAITSSGDDTYYADSVKGRFTISRDNAKNTVYLQMNSLKPEDTAVYYCAAEYTEGYTHDYWGQGSQVTVSS”, which “polyreactivity (PSR sort gate)” value is on record?
The value was “low polyreactivity”.

Which “polyreactivity (PSR sort gate)” value does the source give for “QVQLVESGGGLVPAGGSLRLSCAASGSTFPGYAMGWYRQAPGQERELVAAISTSGGRTYYADSVKGRFTISRDNAKNTVYLQMNSLKPEDTAVYYCARVAFYVAHGGFAFGRYYYWGQGTQVTVSS” here?
Its value is “low polyreactivity”.

Which “polyreactivity (PSR sort gate)” value does the source give for “QVQLVESGGGLVQAGGSLRLSCAASGRTFKYYAMGWYRQAPGKERELVAAISHSGGSTYYADSVKGRFTISRDNAKNTVYLQMNSLKPEDTAVYYCAADHGDGNYPYYYWGQGTQVTVSS” here?
The value was “high polyreactivity”.

With “QVQLVESGGGLVQAGGSLRLSCAASGRIFYPNAMGWYRQAPGKERELVAAITGRGGITYYADSVKGRFTISRDNAKNTVYLQMNSLKPEDTAVYYCNAAAYYPTNYGGYLFEYWGQGTQVTVSS” as the sequence, how does the “polyreactivity (PSR sort gate)” value read?
The value was “low polyreactivity”.

For “QDQLVESGGGLVQAGGSLRLSCAASGRTFAKSAMGWYRQAPGKERELVASISRRGGSTYYADSVKGRFTISRDNAKNTVYLQMNSLKPEDTAVYYCNAVVTVNGYDSWGQGTQVTVSS”, which “polyreactivity (PSR sort gate)” value is on record?
Its value is “high polyreactivity”.

Which “polyreactivity (PSR sort gate)” value does the source give for “QVQLVESGGGLVQAGGSLRLSCAASGSIFYSNKGWYRQAPGKEREFVAAISGSGVRTYYADSVKGRFTISRDNAKNTVYLQMNSLKPEDTAVYYCNAGRRQDYRYIYWGQGTQVTVSS” here?
The value was “high polyreactivity”.

With “QVQLVESGGGLVQAGGSLRLSCAASGSIFGAYAMGWSRQAPGKERELVAAISGSGTSTYYADSVKGRFTISRDNAKNTVYLQMNSLKQEDTAVYYCAADGTYFYIYLGDRFDYWGQGTQVTVSS” as the sequence, how does the “polyreactivity (PSR sort gate)” value read?
Its value is “low polyreactivity”.

Which “polyreactivity (PSR sort gate)” value does the source give for “QVQLVESGGGLVQAGGSLRLSCAASGSTFRGYVMGWYRQAPGQERELVAVINSSGGRTYYADSVKGRFTISRDNAKNTVYLQMNSLKPEDTAVYYCAARVLQYSGYYYWGQGTQVTVSS” here?
Its value is “high polyreactivity”.

With “QVQLVESGGGLVQAGGSLRLSCAASGSILLTNAMGWYRQAPGKERELVAAITSSGGSTSYADSVKGRFTISRDNAKNTVYIQMNSLKPEDTAVYYCAAAQRYRSQQFDHWGQGTQVTVSS” as the sequence, how does the “polyreactivity (PSR sort gate)” value read?
The value was “low polyreactivity”.

— the nanobody polyreactivity screen of Harvey et al. (2022)
